Assay results reported in the DeepSol protein solubility set.

assay: soluble on expression in E. coli; label from the status in PepcDB or PDB records

Row | Sequence | soluble on expression in E. coli
1 | MGSDKIHHHHHHMADLKKQIASGKIAPVYFFQGPESWLKEEIETQLKAAIFPSENEAALNTLVLYGPDLTLGQIVSAASEYPMFTEKKLVVVRQFDKLKKVTDKTESQRQEKSLLSYLSDPPSFTVLVLDADEIEKTELEKAPYKHLKAFRHDFGAIKNAEIFAAERAREAGWEFEPEALKTFSGYIEPSSRLICQEIEKLTLYASNKRPERRITLDDVCDCVGISRKYNVFELEKALVSKNLRQCSGIALMIMEQEGQKEGLMNIVRYLTTFFLRIWKLQTPGAQQLSLQETAAMLGMYGRQEYFAKNFIGYARQFSAAETENAILALRDADAALKGIIPSPDDRFTLLKLMQQLFN | not soluble
2 | MGSDKIHHHHHHMADYQQMWANLGMDLEKHDVLCEVLPEAFGGVYLTQQDRPKGMDFYDFVVSEIHGVRPAEMLQHQKEGGKVFGTFCVYVPDEVVFAAGGIAAGLCGGSQFWVSGGEKVLPANTCPLIKASVGARLDKTCPFFLIPDMYVAENTCDGKKKAWEILAGEVPMHIIDIPQMKRERDVAAFAAEIRDFIGVVEKVTGKKINAESLGEAIKLINNKRRALQRVYNARKASPVPISGKDALLVTQINFYDDPARAAQMANNLADELEQRINNGTGVFPENAPRIMISGTPMAIPNWKLHHIVESLGAAIVVEESCTGTRYFENLVDETASTLDEQIRALAERYMKTNCACFTPNSARIDDIIRLADEYKVDGIIDTNLQFCNLYSTESYLIKQVMTERNLPIIHIETDYSEQDFEQLRTRVEAFLEMLRK | not soluble
3 | MGSDKIHHHHHHMAELNKTKVRKELRTERPSIYSFELDEIKQWLTDNGEKPFRAAQIFEWLYEKRVSSFEDMTNLSKDLREKLNTRFVLTTLKTAVKQTSQDGTMKFLFELHDGYTIETVLMRHEYGNSVCVTTQVGCRIGCTFCASTLGGLKRNLEAGEIVAQVVKVQKALDETDERVSSVVIMGIGEPFDNFNEMLAFLKIINHDKGLNIGARHITVSTSGIIPKIYEFADQQMQINFAISLHAPNTEIRSRLMPINRAYKLPDLMEAVKYYINKTGRRISFEYGLFGGVNDQVEHAEELADLLEGVKCHVNLIPVNYVPERDYVRTPRDQIFAFEKTLKSRGVNVTIRREQGHDIDAACGQLRAKERQDETR | not soluble
4 | MGSDKIHHHHHHMAENWKNCFEEELICPICLHVFVEPVQLPCKHNFCRGCIGEAWAKDSGLVRCPECNQAYNQKPGLEKNLKLTNIVEKFNALHVEKPPAALHCVFCRRGPPLPAQKVCLRCEAPCCQSHVQTHLQQPSTARGHLLVEADDVRAWSCPQHNAYRLYHCEAEQVAVCQYCCYYSGAHQGHSVCDVEIRRNEIRKMLMKQQDRLEEREQDIEDQLYKLESDKRLVEEKVNQLKEEVRLQYEKLHQLLDEDLRQTVEVLDKAQAKFCSENAAQALHLGERMQEAKKLLGSLQLLFDKTEDVSFMKNTKSVKILMDRTQTCTSSSLSPTKIGHLNSKLFLNEVAKKEKQLRKMLEGPFSTPVPFLQSVPLYPCGVSSSGAEKRKHSTAFPEASFLETSSGPVGGQYGAAGTASGEGQSGQPLGPCSSTQHLVALPGGAQPVHSSPVFPPSQYPNGSAAQQPMLPQYGGRKILVCSVDNCYCSSVANHGGHQPYPRSGHFPWTVPSQEYSHPLPPTPSVPQSLPSLAVRDWLDASQQPGHQDFYRVYGQPSTKHYVTS | not soluble
5 | MGSDKIHHHHHHMAFNIDGSGNKSGVRSNMLSENNILKYGSNFSKANASSLNNKINSLNYTVEYINNELMGIFFRQGLKFGIFKAVEDFRPTISELITILGYPNEEFVEKYIKTAVSLNLLNLNEEERLELNSDFIYSSIHPEYDKIISDHVSRYDFMSGLVQYAFIGYDHPEILLNFKKDADIWDMMLNTKYMKTCREVISEYLDIKNGDTILEVGCGSRSPLYFASKVAPNGEYVGVDISKKLIRVAQGRLKRSGIECAKLKALDFSETIAKNKHDYVLCIHTLSYADSLKLFLKKMMGSLRKGGKLVIMEEFFTENINTNAELFEFYNHLNKYFKNYVSKTEILKELELIGIDYKYELLGDNCIVVERI | not soluble
6 | MGSDKIHHHHHHMAGTCGLTLGKYAPLHKGHQLVIETALAEMDEVLVMIYECPEVTAIPLTVRANWLRKIYPQILVIEAWDGPTEVGDTSEIKKMHEDYILKQLESKKITHFYCSEFYGEHVSQALGAVNRLVDCDRKTFPISGTQVRTDTYAMREYLHPDVYRDLIANIVFLGAPSTGKTTIASQLAKEYNTVWMPEYGREYWEKNQINRRLSLLQLVEIAKGHLEREEALLLQANQYLFTDTNALTTYQFSLYYHKTVAPELVQLAHQAMSRYDLVFLCDLDIPYDDTWDRSGEANRSIFQKQIESDLIVRKIPFFRLSGDLMTRISIVKKVLYYYQKYASLGELFFNKLIL | not soluble
7 | MGSDKIHHHHHHMAGVSPLSNRWSKQVLSNFEQAASTYNSQAQLQRAVAWRLARQCARQHIPAGFWVDLGSGTGLMADALEACNPHQAVLRVDGCHEMLKHHHHSSQTLLWDLNLGVPSWPQLPSLLASSFALHWLINPLERLHEWMAALTPEGWLALALPVEGSFPQWHQAAATAGVSCTALPFPSQASLLDVLSSNNIRHQQLHQFTQQSPEVFQLLKPMRQIGAQASPCSTMGVGNWRHLKQAWPRCQNSGDAQLTWLIQLLLIQR | not soluble
8 | MGSDKIHHHHHHMAHHAAPPINTTKFPIDRWWVAALSSELTDKPVARTLLGRPVVLFRLPSGEVGALEDRCCHKSLPLSCGSLEVRGLRCGYHGLLFDRDGACVEIPGQDRIPAKACVASYPVREQDAIVWIWIGAEAHAEPTCAPPRYPFHSDPQYRFGGGHYHYDAPYQLIHDNLMDLSHLGYVHLKTIGGNASLHMGAETRVSTDGDTVTLVRRMPDSEPPPTYTAAWPFAGRVDRWQEIEFHVSHIRIWTGAMDAGTGDLHDPARGGFHMRGFHGITPETETTTHYFWTVATNPQHDIERVARTVIEQSAATFDEDKTVIEAQYRNQLRFPDRRQIDIHVDAGPNRARRVIERLLLQPEPA | not soluble
9 | MGSDKIHHHHHHMAIACVNTRASCGVEAPKVTVEVHLSNGLPAFNLVGLPEASVKEARERVRSALINAGFEFPMRRITVNLAPADLPKQGGRYDLPIAVGILAASEQIPANSLKNLEFVGELALSGQIRYCQGLLPAIIAAKRQDNTLILPLENRHDAELVGYQKVFFGSHLQSLAAFLQGQAPLPELDTHLEWVSEEQSYDSSQCLSDVIGQYQAKQALEIAAAGNHNLLMLGPPGTGKTMLASRMMALLPALSYEEALEVAAIHSVAGLDIKPQDFLKRPFRAPHHTSSSISLVGGGSIPKPGEISLAHRGVLFLDEVAEFPRKVLDCLREPMETGEVVISRAAAKLTFLSRFQLIAAMNPSPSGDIDANNRATPDQVQRYLARLSGPFLDRFDLTIEVPKLPAGTLTQAMAPSETSQDVAKRVRRARDIQLARSGVLNSELTGKQLKLFSGLTDADLIFLEQSVVKLGLSVRSFHRIQRVARTIADLEQSPNTERRHLAQALGYRAMDRLLARLSQQY | not soluble
10 | MGSDKIHHHHHHMAIEHYWDQALERSTAAQLNGALVPLSTELTRIRARQGEPFELRKLKGHPPSHLLARGPKPNPFLPWDPSLEVSEIGMRHVLILNKYPVQKGHMLLITREWAPQHGWLSYDDWEALLSVDQDTKGLWFFNSSPTAGASQPHRHLQLLRRCDDDRSCPRQEWFQSLVNSSPRESCQLTQCCAATARAQNHDAQIHYQAYLTLCEKIGLGNPAENQHPRQPYNLLLTKEWMALILRSREGIAGFSINALGFAGYLLATETSDLDWLNHHGPEALLEGVVKTIQ | not soluble
11 | MGSDKIHHHHHHMAINYGVFTISLDFEMYWGVRDKRAISDYAVNLEGIRPAIAGMLDIFTEFNVHATWATVGFLFFRNSEHLSANLPKAIPTYTDINLSPYEYIKNKKLDDRYHFAPDLIQKIISTSGQEVASHTFSHYYCLEDGQTIDQFESDLALAVDTASRLGYKLSSLVFPRNQWNSEYLSVLNKYNIKSFRGNELNWMNSASGQEGQSYFKRAARLLDSYINISGFNTHDISTCLENKPFNFPSSRFLRPYNKKLSFFDCLKLRRIKKAMTHAAKNNELFHLWWHPHNFGAETSKNLDMLREILDHYQYLNKNFGMRSLNMEELSFLEKAYD | not soluble
12 | MGSDKIHHHHHHMAITIQNHELQVTLKALGATMTSITDSQGVEYLWQGDATYWGGQAPILFPICGSVRNDCVIYRPAQAPHFTGIIPRHGFVRHKTFDYDYISDSSVRFTIKSSKEMLINYPYRFSLEITYTLRNKSIAITYIVKNLESEKNMPYAIGAHPGFNCPLFEKEVFSDYYLEFEQFETCTIPESFPDTGLLDLQARHPFLENQKQLSLNHALFEKDAITLDQLRSKTVYLKSRNHAKGIQLDFDDFENLILWTSNNGGPFLALEPWSSLSTSIEESDILEDKQNIVRLNPKQSKQHSIRITIL | not soluble
